Test results taken from publication PMC9064986.

B1: BMPRII extracellular domain (ECD), wild type [human] / BMP10 growth factor (GF)-domain from Pro:BMP10 made in HEK EBNA cells [human] (parent)
chain 1: SQNQERLCAFKDPYQQDLGIGESRISHENGTILCSKGSTCYGLWEKSKGDINLVKQGCWSHIGDPQECHYEECVVTTTPPSIQNGTYRFCCCSTDLCNVNFTENFPPPDTTPLSPPHSFNRDET
chain 2: NAKGNYCKRTPLYIDFKEIGWDSWIIAPPGYEAYECRGVCNYPLAEHLTPTKHAIIQALVHLKNSQKASKACCVPTKLEPISILYLDKGVVTYKFKYEGMAVSECGCR

Assays:
[1] = variants of: B1; experiment: ELISA (prodomain displacement); conditions: with BMP10 growth factor (GF)-domain from Pro:BMP10 made in HEK EBNA cells [human]; BMPRII ECD at 125x excess over Pro:BMP10; lower reading = more prodomain displaced; parent: 0.42; read off a plot
[2] = variants of: B1; experiment: native PAGE prodomain displacement (densitometry); conditions: with BMP10 growth factor (GF)-domain from Pro:BMP10 made in HEK EBNA cells [human], lower ratio = more prodomain displaced, read off a plot
[3] = variants of: B1; experiment: SPR (Biacore); conditions: with Recombinant human BMP10 growth factor (GF)-domain (R&D Systems) [human], BMP10 immobilised on a CM5 Biacore chip
[4] = BMPRII ECD at 2-fold excess (2x) over Pro:BMP10, parent: 0.59
[5] = BMPRII ECD at 5-fold excess (5x) over Pro:BMP10, parent: 0.46

screen value [1]	screen value [2, 4]	screen value [2, 5]	Kd ([3]; parent: 1.19e+03 nM) [nM]	koff ([3]; parent: 0.161) [s⁻¹]	kon ([3]; parent: 1.35e+05) [M⁻¹ s⁻¹]	Variant
0.3	0.7	0.66				chain 1 S81P
0.42	0.49	0.19				chain 1 E72K
0.67	0.9	0.77				chain 1 G63W
0.75	0.99	0.93				chain 1 G63E
0.57	0.78	0.6				chain 1 G63A
0.52	0.64	0.39	1320	0.14	106000	chain 1 N100S
0.47	0.77	0.55				chain 1 Q66H
1	0.93	0.88				chain 1 Y41C
0.95	0.82	0.72				chain 1 G42D
1	0.93	0.88				chain 1 G57E
